The values below come from publication PMC3983572.

The target of this assay is protein interacting with C kinase 1 (PICK1), recombinant full-length (UniProt Q9EP80). Briefly: fluorescence polarisation. On the technique in general: Fluorescence polarisation rises when a labelled molecule tumbles more slowly, as on binding a larger partner.

pKi: −log10 of the molar value.

Sequence of UniProt Q9EP80 (Q9EP80 whole entry): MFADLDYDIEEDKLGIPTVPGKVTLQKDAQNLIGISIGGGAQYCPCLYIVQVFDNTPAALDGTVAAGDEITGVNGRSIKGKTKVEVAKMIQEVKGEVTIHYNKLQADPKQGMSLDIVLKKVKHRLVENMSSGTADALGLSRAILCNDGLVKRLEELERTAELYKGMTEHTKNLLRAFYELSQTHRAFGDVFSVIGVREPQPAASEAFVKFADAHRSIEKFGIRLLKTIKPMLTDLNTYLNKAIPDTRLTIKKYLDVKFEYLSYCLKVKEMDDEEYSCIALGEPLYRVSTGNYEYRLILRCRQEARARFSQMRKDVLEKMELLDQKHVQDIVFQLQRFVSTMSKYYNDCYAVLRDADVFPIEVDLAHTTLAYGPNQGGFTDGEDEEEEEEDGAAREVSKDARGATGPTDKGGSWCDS

For orientation: pKi means −log10 of the Ki, conventionally taken in molar units. For the substance unlabeled GluA2 peptide, the pKi was 4.62.
